Test results taken from US20110033521A1 (RAPPAPORT FAMILY INSTITUTE FOR RESEARCH IN THE MEDICAL …, published 2011).

Biological target: T1, recombinant human MCP-1 (CCL2) (human, UniProt P13500 24-99)
T1 construct: Bought recombinant protein; also called RHMCP-1; monocyte chemoattractant protein-1
Test: direct ELISA (O.D. 450 nm), chemokine coated at 100 ng/ml, CCR2(E3)-IgG at 5 ug/ml; reference: other human chemokines tested
Description: ELISA—The binding specificity of CCR2(E3)-IgG to various commercially available human chemokines (PeproTech, Rocky Hill, N.J.) was determined by direct ELISA as follows: 96-well ELISA plates (Nunc, Roskilde, Denemark) were coated with 100 ng/ml of each chemokine, washed and blocked with 1% BSA/PBS. CCR2(E3)-IgG at a concentration 5 μg/ml was then added. HRP labeled mouse anti human Ig (Jackson, Pa.) was added as a second Antibody. Results are shown as O.D. reading at 450 nm. Anti CCL2 monoclonal antibody (MAB679; R&D Systems, Minneapolis, […].) was used as a positive control (1 μg/ml).

T1 sequence (P13500 24-99 limits assumed): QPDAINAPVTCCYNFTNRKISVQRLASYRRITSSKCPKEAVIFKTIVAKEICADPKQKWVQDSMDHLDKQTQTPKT

- fold binding against other factors tested: ~4 fold
B1: CCR2(E3)-IgG fusion protein (Fc fusion)
chain: GLSNCESTSQLDQATQVTET
notes: also called Ig-E3; CCR2-IgG; not shown: constant region (Hinge-CH2-CH3) of human IgG1 heavy chain, ligated downstream of CCR2 (E3)
